Assay results published in the nanobody polyreactivity screen of Harvey et al. (2022).

Assay: yeast display, Sf9 membrane polyspecificity reagent, FACS + sequencing; frameworks hold sequencing errors
How it was run: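 Nanobodies from a synthetic yeast display library (Saccharomyces cerevisiae BJ5465), induced 36–48 hours with galactose, were stained 1 hour at 4 °C with 10% biotinylated, detergent-solubilized Sf9 membrane reagent, enriched on streptavidin microbeads, then FACS-sorted. Anti-HA (expression) and streptavidin (reagent binding) fluorescence set low and high (top ~1%) gates. Polyreactivity labels come from the gate of origin. Genes were colony-PCR amplified, MiSeq 2 × 250 sequenced and filtered by CDR length.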

| Sequence | polyreactivity (PSR sort gate) |
| --- | --- |
| QVQLVESGGGLVQAGGSLRLSCAASGSIFVGNAMGWYRQAPGKERELVAAISSSGGRTFYADSVKWRFTISRDNAKNTVYLQMNSLKPEDTAVYYCAAVYTHWQQRMDYWGQGTQVTVSS | high polyreactivity |
| QVQLVESGGGLVQAGGSLRLSCAASGRTFDVNAMGWYRQAPGKERELVAAIRISGGSTYYADSVKGRFTISRDNAKNTVYLQMNSLKPEDTAVYYCAAYERRYRNAYDYWGQGTQVTVSS | high polyreactivity |
| QVQLVESGGGLVQAGGSLRLSCAASGSTFTKYTMGWYRQAPGKERELVAAITSSGGSTYYADSVKGRFTISRDNAKNTVYLQMNSLKPEDTAVFYCAAPALYYYYYYGYDYWGQGTQVTVSS | high polyreactivity |
| QVQLVESGGGLVQAGGSLRLSCAASGLTFYSYAMGWSRQAPGKERELVAAISKSGGSTFYADSVKGRFTISRDNAKNTVYLQMNSLKPEDTAVYYCNARRRHEGSPPYGYWGQGTQVTVSS | high polyreactivity |
| QVQLVESGGGLVQAGGSLRLSCAASGYNFENNVMGWYRQAPGKERELVAVISWNGGRTYYADSVKGRFTISRDNAKNTVYLQMNSLKPEDTAVYYCNDQGYFWSESIVYDYWGQGTQVTVSS | low polyreactivity |
| QVQLVESGGGLVQAGGILRLSCGASGIIFDGYAMGWSRQAPGKERELVAAIDGTGDSTYYADSVKGRFTISRDNAKNTVYLQMNSLKPEDTAVYYCGAEYDYRWWYGYDYWGQGTQVTVSW | high polyreactivity |
| QVQLVESGGGLVQAGGSHRLSCAASGRTFEYNAMGWYRQAPGKERELVATITRASTNYADSVKGRFTISRDNAKNTVYLQMNSLKPEDTAVYYCNARARGRRYPYSKYYYWGQGTQVTVSS | high polyreactivity |
| QVQLVESGGGIVQAGGSLRLSCAASGSTLFGDAMGLYRQAPGKERELVAAINRRGSTNYADSVKGRFTISRDNAKNTVYLKMNCLKPEDTAVYYCAAYIYKTYRYYYWGQGTQVTVSS | high polyreactivity |
| QVQLVDSGGGLVQAGGSLRLSCGASGFIIARNAMGGYRHPPGKERELVAAISRNGGRTSYADSVKGRFTISRDTAKNTVYLQMNSLNPEDTAVYYCAKAQGYVTWTGAYAYDYWGQGTQVTVSS | high polyreactivity |
| QVQLVESGGGLVQAGGSLRLSCAASGFIFGSYAMGWYRQAPGNERELVAAISDSGDSTYYADSVKGRFTISRDNAKNTVSLQLTRLKPEDTAVYYCNRGYRWRRYENYYWGQVTQVTVSS | high polyreactivity |
| QVQLVESGGGLVQAGGSLRLSCAASGSTFGRNAMGWYRQAPGNERELVAAISKRGGSTYYADSVKGRFTISRDNAKNTVYLQMNSLKPEDTAVYYCAKDVEGLGRRYRWYNYWGQGTQVTVSS | high polyreactivity |
| QVQHVESGGGLVQEGGILRLSCAASGFTYRTYAMGWSRQAPGQESELVADISGSGGSTYYADSVKGRFTISRDNAKNTVYLQMNSQKPEDTAVFYCAADDASWSNLGYEYWGQGTQVTVSS | high polyreactivity |
| QVQLVDSGGGLVQAGGSLRLSCAASGRILSTYPMGWYRPAPGKERELVAAITRTSGSTYYADSVKGRFTISRDNAKNTVFLQMNSLKPEDTEVYYCAADTWLITWSGQYNSWGQGTQVTVSS | low polyreactivity |
| QVQLVESGGGLVQAGGRLRLSCAASGRTFRRYAMGWYRPAPGTERELVAAISWSGGSTYYADSVKGRFTISRDNAKNSVYLQMNSLKPEDTAVYYCGAETRYGYGYWGQGTQVTVSS | high polyreactivity |
| HLQLVESGGGLVQAGGSLRLSCAASGSILNFYAMGWYRQAPGTERELVAAISSSGGSTYYADSVKGRFTISRDNAKNTVYLQMNILQPEDTAVYYCNADYSPSSDSEYGYWGQGTQVTVSS | low polyreactivity |
| QVQLVESGGGLVQAGGSLRLSCAASGRIFRDYSMGWYRQAPGKETELVATITWSGATTYYADSVKGRFTISRDNAKNTVYLQMNSLKPEDTAVYYCNTDTDVDVAFDSWGQGTQVTVSS | low polyreactivity |
| QVQLVESGGGLVQAGGSLRLSCAASGLTFRYYAMGWYIQAPGKERELVATITATDGSTYYADSVKGRFTISRDNAKNTVYLQMNSLKPEDTAVYYRAKTYTEYSVTRSGARMDYWGQGTQVTVSS | low polyreactivity |
| QVQLVESGGGLVQAGGSLRLSCAASGLIFVDNAMGWYRPAPGKEREVVAAIDSGGSTNYADSVKGRFTISRDNAKNTVYLQMNSLKPEDTAVYYCAADWIYAPWYYQESVEYYYWGQGTQVTVSS | low polyreactivity |
| QVQLVESGGGLVQAGGSLRLSCAASGSTFPTYAMGRDRTAPGKEREMVAAIDWSDGSITYYADSVKGRFTISRDNAKNTVYLQMNSLKPEDTAVYYCAKDNSQYGWGYDYWGQGTQVTVSS | low polyreactivity |
| QVQHVESGGGLVQAVGSLRLSCSASGITFHYYTMGWYRQAPGKEREFVAAISKSGGRTYYADSVKGRFTISRDKAKNTVYLQMNSLKPEDTAVYYCAGLYYFNGDYWGEGTQVTVSS | high polyreactivity |
| QVQLVESGGGLVQAGGSLRLSCAASGRTFRKNTMGWYRQAPGKEREFVATISSRGGSTFYADSVKGRFTISRDNAKNTVYLQMNSLKPEDTAVYYCNAVYRYSLKPIYDYWGQGTQVTVSS | high polyreactivity |
| QVQLVESGGGLVQAGGSLRLSCAASGSTFSYAMGWYRQAPGKERELVAAITIGGRTSYADSVKGRFTISRDNAKNTVYLQMNSLKPEDTAVYYCAAEGYYPVYYYVYYGYDYWGQGTQVTVSS | low polyreactivity |

| Sequence | polyreactivity (PSR sort gate) |
| --- | --- |
| QVQLVESGGGLVQAGGSLRLSCAASGSTFAVNAMGWYRQAPGKERELVAAITGSGGSTYYADSVKGRFTISRDNAKNTVYLQMNSLKPEDTAVYYCAAYRRYGYYYWGQGTQVTVSS | low polyreactivity |
| QVQLVESGGGLVQAGGSLRLSCAASGSTFYSYAMGWYRQAPGKEREFVAAIRYSGGRTYADSVKGRFTISRDNAKNTVYLQMNSLKPEDTAVYYCAAVYYSYRWPYDYWGQGTQVTVSS | high polyreactivity |
| QVQLVESGGGLVQAGGSLRLTCAASGRIFSGYAMGWYRQEPGKEREFVASISTSGARTYYADSVKGRFTISRDNAKNTVYLQMNRLKPEDTAVYYCAKVIRWISYRGWYDYWGQGTQVTVSS | high polyreactivity |
| QVQLVESGGGLVQAGGSLRLSCAASGIIFYVYAMGWYRQAPVKERELVAAISDTAGDTYYADSVKGRFTISRDNAKNTVYLQMNSLKPEDTAVYYCATDWFSYRGGIFDSWGQGTQVTVSS | low polyreactivity |
| QVQLVESGGGLVQAGGSLRLSCAASGRIFIVNAMGWYRQAPGKERELVAAISYRGGSTYYADSVKGRFTISRDNAKNTVYLQMNSLKPEDTAVYYCNKDSTGDGYDYWGQGTQVTVSS | low polyreactivity |
| QVQLVESGGGLVQAGGSLRLSCAASGRIFVHNAMGWYRQAPGKERELVAAISQNGGRTYYADSVKGRFTISRDNAKNTVYLQMNSLIPEDTAVYYCAAGQARAGLIGGYWGQGTQVTVSS | high polyreactivity |
| QVQLVESGGGLVQAGGSLRLSCAASGRNFYYNAMGWYRQAPGKERELVASITGSGGSTYYADSVKGRFTISRDNAKNTVYLQMNSLKPEDTAVYYCAKREYLYPYYYVAKYDYWGQGTQVTVSS | low polyreactivity |
| QVQVVESGGGLVQAGGSLLLSCAASGSTFEYNAMGWYRQAPGKERELVASSTNYADSVKGRFTISRDNAKNTVYLQMNSLKPEDTAVYYCARELGVNRKHDYWGQGTQVTVSS | low polyreactivity |
| QVQLVDSGGALVQAGGSLRLSCAASGSTFVVNAIGWYRQAPGKERELVAAIAGGGSTNYADSVKGRFTISRDNAKNTVYLQMNSLKPEDTAVYYCAVDGVEFSSYGYWGQGTQVTVSS | low polyreactivity |
| QVQLLESGGGLVQAGGSLRLSCAASVFTFYGYAMGWYRQAPGKERELVAAISRRGGSTYYADSVKGRFTISRDNAKNTVYLQMNSLKPEDTAVYYCATDRAYYHSYGRFGYWGQGTQVTVSS | high polyreactivity |
| QVQLVESGGGLVQAGGSLRLSCAASGIIFRRYAMGWYRQAPGKERELVAVISSGGSTNYADSVKGRFTISRDNAKNTVYLQMYSLKPEDTADYYCAAPSQSRGYYYWGQGTQVTVSS | high polyreactivity |
| QVQHVESGGGLVHAGGSLRLSCAASGLIFRNNAMVLYRQAPGTERELDASITSDGSTNYADSVKGRFRISRDNAKNSFYLQMNSLKPEDTAVYYCAADGYTYWYYQLIPDYDYWGQGTQVTVSS | low polyreactivity |
| QVQIVESGGGLFQAGGRLPLSCAASGSSFKINDMGWYRHAPGKERELVATITWSTGTTYYADSVKGLFTISRYNAKNTVYLKMNSLKPEYTAVYYCAADYCSYGYVLFDYWGQGTQVTVSS | low polyreactivity |
| QVQLVESGGGLVQAGGSLRLSCAASRRTFYEYAMGWYRQAPGKERELVAAITRSGGSTYYADSVKGRFTISRDNAKNTVYLQMNSLKPEDTAVYYCAAYRHQYRVRYYTAYDYWGQGTQVTVSS | high polyreactivity |
| QVQLVESGGGLVQAGGSLRLSCAASGRTFYRNAMGWYRQAPGKERELVAAIRTRTGSTYYADSVKGRFTISRDNAKNTVYLQRNSLKPEDTAVYYCNASPYVNGRYGSWGQGTQVTVSS | high polyreactivity |
| QVQLVESGGGLVQAGGSLRLSCAASGSTFVYYAMGWYRQAPGKERELVAAISSSGGTTYYAVSEKGRFTISRDYGKNTGYLLMNSLKPEDTAVYFCAAPYASRGYEYWGQGTQVTVSS | high polyreactivity |
| QVQLVESGGGLVQAGVSLRLSCAASGTFYSNAMGWYRQAPGKERELVAAINTSGSTNYADSVKGRFTISRDNAKNTVYLQMNSLKPEDTAVYYCAAGIVVTGYDYWGQGTQVTVSS | low polyreactivity |
| QDQLVESGGGLVQAGGSLRLTCAASGSIFGWYAMGWYRQAPGKEMELFAAITNSGGSTYYADSVKGRFTISRDNAKKTVYIQMNSLKPEETAVYYCAAESWIRRWYGGGKKYDYWGQGTQVTVSS | high polyreactivity |
| QVQLVESGGGLVQAGGSLRLSCAASGRTFFIYAMGWYRQAPGKERELVARITGGGRTYYADSVKGRFTISRDNAKNTVYLQMNSLKPEDTAVYYCAKRSYVTYPPYDYWGQGSQVTVSS | high polyreactivity |
| QVQLVESGGGLVQAGGSLRLSCAASGSIFYPYAMGWYRQAPGKERELVAAIRNGGSTYYADSVKGRFTISRDNAKNTVYLQMNSLKPEDTAVYYCAASVRRRHPFEYWGQGTQVTVSS | high polyreactivity |
| QVQLVESVGGLVQAGGTLRLSCAASGSTFNINAMGWYRQAPGKERELVAAISWSGDITYYADSVKGRFTISRDNAKNTVYLQMNSLKPEDTAVYYCNTDDPVNYWYAEYDYWGQGTQVTVSS | low polyreactivity |
